Binding result and Kd data for two molecules are collected here from patent publication US20160347843A1 (UNIVERSITY OF MASSACHUSETTS, published 2016).

In assay [1] the target is T1, recombinant human sFlt1-14 with C-terminal 6-histidine tag, expressed in CHO cells (human, UniProt P17948 27-705).
T1 construct: also called sFlt1_v2; sFlt1-e15a
As to the kind of experiment: western blot, reducing SDS-PAGE, nitrocellulose, probed with 1C-KLH-18, HRP anti-mouse secondary. The protocol: Specificity of mAbs to sFIt1-14 and SFIt1-1 was investigated by western blot analysis on human amniotic fluid (FIG. 3). […] As standards, human recombinant sFlt1-1 or sFlt1-14 was loaded in final quantities of 200, 100 and 50 ng. After electrophoresis and transfer to nitrocellulose membranes, blots were blocked in 5% BSA and probed with EX14-1 (FIG. 3A), 1C-KLH-18 (FIG. 3B) or a commercially available mouse anti-VEGFR1 mAb (FIG. 3C) that recognized a single protein in amniotic fluid at the expected molecular weight (˜115 kDa) that corresponds to recombinant human sFlt1-14 and sFlt1-1, respectively. After washing, an HRP-labeled anti-mouse secondary antibody was used to detect bound mAb, developed and visualized using a Kodak Gel Logic imaging system. In addition, both mouse mAbs specifically recognized their recombinant sFlt1 isoform standards by western blot.

The target of assay [2] is T2, recombinant human sFlt1-1 with C-terminal 6-histidine tag, expressed in CHO cells (human, UniProt P17948 27-656).
T2 construct: also called sFlt1_v1; sFlt1-i13
T2 sequence (P17948 other isoform, or with tags, fused parts or gaps): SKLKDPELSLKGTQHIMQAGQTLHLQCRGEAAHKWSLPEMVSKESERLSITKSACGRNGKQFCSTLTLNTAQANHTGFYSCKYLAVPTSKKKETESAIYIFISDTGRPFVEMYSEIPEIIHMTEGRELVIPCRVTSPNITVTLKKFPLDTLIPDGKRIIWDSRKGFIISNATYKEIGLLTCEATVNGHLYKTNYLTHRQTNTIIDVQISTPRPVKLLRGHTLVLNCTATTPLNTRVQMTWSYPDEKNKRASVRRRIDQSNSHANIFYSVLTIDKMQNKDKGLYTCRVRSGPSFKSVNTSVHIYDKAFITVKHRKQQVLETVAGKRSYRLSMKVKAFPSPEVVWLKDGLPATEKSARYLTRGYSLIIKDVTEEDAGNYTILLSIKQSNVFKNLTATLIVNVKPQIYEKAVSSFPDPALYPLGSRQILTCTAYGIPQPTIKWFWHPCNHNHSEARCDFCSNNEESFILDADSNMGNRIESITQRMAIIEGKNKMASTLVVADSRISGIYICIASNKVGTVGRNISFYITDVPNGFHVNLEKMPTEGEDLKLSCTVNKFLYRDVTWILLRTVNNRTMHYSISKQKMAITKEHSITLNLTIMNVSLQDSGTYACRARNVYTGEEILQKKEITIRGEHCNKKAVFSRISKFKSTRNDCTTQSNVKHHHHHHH
As to the kind of experiment: Octet QK (BLI), mAb captured on anti-murine biosensor, recombinant sFlt in solution. The protocol:
(§1) Affinity of antibodies was determined using an Octet QK (ForteBio) biomolecular interaction instrument. The Octet QK performs similarly to Biacore in the measurement of antibody affinity. The Octet QK uses biosensors to assess mass increases/decreases and determine rates of association and disassociation. Anti-murine or anti-human biosensors (ForteBio) were used to capture mAb in PBS (5 ug/ml) to saturation and unbound mAb was washed away. The coated biosensors were introduced into a solution containing recombinant human sFlt1-1 or sFlt1-14 at which time Kₒₙ was determined. The sensor was then introduced into a buffer solution and the Koff determined. Using Kₒₙ and Koff an affinity (KD) was calculated.

The target of assay [3] is T3, GST-1C (glutathione S-transferase fused upstream of the sFlt1-1-specific C-terminal peptide) (human, not fully specified).
T3 construct: Bacterially expressed screening antigen coated on ELISA plates; not shown: N-terminal glutathione S-transferase (GST) fusion partner
T3 chain: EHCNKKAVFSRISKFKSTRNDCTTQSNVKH
As to the kind of experiment: ELISA of hybridoma cultures on coated GST-1C. Here is the method:
(§2) To determine reactivity of unique antibodies with sFlt1-1 and sFlt1-14, ELISA was employed. As described above, TRX-Exon14 and GST-1C peptides were expressed and purified from bacteria. ELISA plates were coated with either GST-1C (FIG. 2A) or TRX-Exon14 (FIG. 2B), blocked with BSA and a series of dilutions of each hybridoma supernatant containing mAb was incubated on the coated plates. Bound antibody was detected with anti-mouse alkaline phosphatase secondary antibody and the interaction developed with PNPP. Plates were read using a Molecular Devices Emax plate reader and antibodies with the desired specificity and highest affinity were selected for final ELISA production. These included mouse mAbs EX14-1 to detect sFlt1-14 and 1C-KLH-18 to detect sFlt1. […] A human anti sFLT antibody with properties described above (under Quantitative Capture ELISA) was also used to minimize background in the ELISAs.
(§3) To determine reactivity of unique antibodies with sFlt1-1. sFlt1-14, TRX-Exon14 (SEQ ID NO. 40) and GST-1C (SEQ ID NO. 38) isoforms, ELISA plates were coated with either GST-1C or TRX-Exon14, blocked with BSA and a series of dilutions of each hybridoma supernatant containing mAb (or purified mAb) was incubated on the coated plates. Bound antibody was detected with anti-mouse alkaline phosphatase secondary antibody (Jackson ImmunoResearch) and the interaction developed with pNPP. […]
In general terms: An ELISA detects its analyte on a solid surface through an enzyme-linked reagent.

The target in assay [4] is T4, TRX-Exon14 (thioredoxin with 6-histidine tag fused upstream of the sFlt1-14-specific peptide) (human).
T4 construct: Bacterially expressed screening antigen coated on ELISA plates; not shown: N-terminal thioredoxin (TRX) with 6-histidine tag from pET32a(+)
T4 chain: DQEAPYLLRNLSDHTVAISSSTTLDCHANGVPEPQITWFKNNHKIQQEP
As to the kind of experiment: ELISA of hybridoma cultures on coated TRX-Exon14. The protocol:
as §2, §3

For assay [5], the target named is T3, GST-1C (glutathione S-transferase fused …). Kind of assay: direct ELISA, plate coated with GST-1C, anti-mouse alkaline phosphatase and pNPP, OD405. The protocol: as §2, §3
Assay [6] addresses T1, recombinant human sFlt1-14 with …. As to the kind of experiment: Octet QK (BLI), mAb captured on anti-murine biosensor, recombinant sFlt in solution. Here is the method: as §1
A general note: In BLI a coated tip is dipped into the sample, and binding shifts an interference pattern.

The target of assay [7] is T2, recombinant human sFlt1-1 with …. As to the kind of experiment: capture ELISA (human anti-sFlt capture, mouse mAb detection). The source says:
To measure the concentration of total sFlt and its isoforms, sFlt1-1 and sFlt1-14, in biological fluid, a capture ELISA was developed. Using an anti-sFlt human antibody to capture total sFlt and mouse antibodies 10 ugR#9, EX14-1 or 1C-KLH-18 to detect bound sFlt, allows the efficient capture of sFlt in biological fluid without high background or interference (FIG. 4). […] The sFlt1-specific mAb, 1C-KLH-18, detects recombinant human sFlt1-1, but not sFlt1-14 (FIG. 4A,B). Conversely, the sFlt1-14-specific mAb, EX14-1, detects recombinant human sFlt1-14, but not sFlt1-1 (FIG. 4A,B). In addition, each mAb detects a protein in human amniotic fluid (known from the literature to contain both sFlt isoforms; FIG. 4C) and no background is observed in normal human sera, which should contain very low levels of sFlt isoforms (FIG. 4D).
A capture ELISA format was utilized to quantify the total sFlt, sFlt1-1 or sFlt1-14 concentration in solution. Briefly, high-binding ELISA plates (Costar) were coated with 1 ug/ml of an anti-sFlt human antibody overnight at 4° C. This anti-sFlt antibody was selected to provide a capture reagent that bound both sFlt1-1 and sFlt1-14 at an epitope in their homologous regions without interfering with the availability of the epitopes bound by the antibodies of the present disclosure. […]

Usually Kd stands for the constant that tells how readily two partners part at equilibrium.

T1 sequence (P17948 other isoform, or with tags, fused parts or gaps): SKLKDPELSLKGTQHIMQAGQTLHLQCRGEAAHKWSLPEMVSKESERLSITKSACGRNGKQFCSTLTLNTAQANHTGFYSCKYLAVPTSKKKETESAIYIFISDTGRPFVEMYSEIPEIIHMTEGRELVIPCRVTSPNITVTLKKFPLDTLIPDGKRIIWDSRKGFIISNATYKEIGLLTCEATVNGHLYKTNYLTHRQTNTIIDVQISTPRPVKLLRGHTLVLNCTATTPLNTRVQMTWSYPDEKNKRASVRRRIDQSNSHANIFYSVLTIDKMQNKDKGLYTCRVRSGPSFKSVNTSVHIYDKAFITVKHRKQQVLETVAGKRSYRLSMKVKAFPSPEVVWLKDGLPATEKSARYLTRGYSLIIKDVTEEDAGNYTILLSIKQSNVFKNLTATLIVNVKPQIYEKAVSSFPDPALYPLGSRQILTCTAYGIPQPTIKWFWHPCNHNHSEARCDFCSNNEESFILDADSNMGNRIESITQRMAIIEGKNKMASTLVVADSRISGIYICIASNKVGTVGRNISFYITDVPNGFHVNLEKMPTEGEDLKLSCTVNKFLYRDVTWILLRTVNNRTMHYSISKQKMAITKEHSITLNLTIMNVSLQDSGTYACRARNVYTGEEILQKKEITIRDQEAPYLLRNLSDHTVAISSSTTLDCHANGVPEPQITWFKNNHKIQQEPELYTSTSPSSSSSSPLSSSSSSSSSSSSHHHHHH

B1: mouse mAb 1C-KLH-18 (antibody, V domains shown)
VH: EVQLQQSGAELVRPGASVKLSCTASGVNIKDDYMNWVNQRPEQGLEWIGWIDPENGDTEYASKFQGKATITADTSSNTAYLQLSSLTSEDTAVYYCAAGYDYFPFVYWGQGTLVAVSA
VL: DVLMSQTPLSLPVSLGDQASISCRSSQNIVHSNGNTYLEWYLQKPGQSPKLLIHKVSNRFSGVPDRFSGSGSGTDFTLKISRVEAEDLGVYYCFQGSHVPFTFGSGTKLEKK
notes: Murine hybridoma mAb with a kappa light chain (VK); It was used as hybridoma supernatant or Protein A purified mAb; also called sFlt1-specific mAb; sFlt1-1-specific mAb
As to B1, the binding result in assay [1] is on record as “no binding (tested: 200 ng per lane)”; in assay [3] it was “binds”. The Kd in assay [2] is 4.3 nM.

B2: mouse mAb EX14-1 (antibody, V domains shown)
VH: QIQLVQSGPELKKPGETVKISCTTSGYIFTTSGMSWVKQAPGKGLQWMGWINTYSGEPTYADDFKGRFAFSLETSASTAYLHINDLKNEDTATYFCARSRNNYEGFAYWGQGTLVTVSV
VL: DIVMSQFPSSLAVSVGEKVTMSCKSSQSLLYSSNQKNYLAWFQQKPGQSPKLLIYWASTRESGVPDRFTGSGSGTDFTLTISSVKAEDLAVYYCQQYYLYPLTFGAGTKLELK
notes: Murine hybridoma mAb with a kappa light chain (VK); also called sFlt1-14-specific mAb
With B2, the binding result is “binds” in assay [4], “no binding” in assay [5] and “no binding” in assay [7]. Further, the Kd in assay [6] came to 39.5 nM.
